Data as given in patent US20100255578A1.

Legend:
H296-H296-HT [1] = test: ELISA; H296-H296-HT coated at 10 ug/mL; HRP-labeled FNH3-8, ABTS; blank subtracted
H271-H296 [2] = test: ELISA; H271-H296 coated at 10 ug/mL; HRP-labeled FNH3-8, ABTS; blank subtracted
[3] = target: H-296, a polypeptide comprising a heparin binding domain and a CS-1 domain of fibronectin (Homo sapiens (Human)) (UniProt P02751); test: ELISA; H-296 coated at 50 ug/mL in 0.2 M phosphate buffer pH 7.4; HRP-labeled FNH3-8, ABTS
[4] = target: H-296, a polypeptide comprising a heparin binding domain and a CS-1 domain of fibronectin (Homo sapiens (Human)) (UniProt P02751); test: ELISA; H-296 coated at 50 ug/mL in 0.2 M phosphate buffer pH 6.2; HRP-labeled FNH3-8, ABTS
[5] = target: H-296, a polypeptide comprising a heparin binding domain and a CS-1 domain of fibronectin (Homo sapiens (Human)) (UniProt P02751); test: ELISA; H-296 coated at 50 ug/mL in 0.2 M phosphate buffer pH 8.0; HRP-labeled FNH3-8, ABTS
[6] = target: H-296, a polypeptide comprising a heparin binding domain and a CS-1 domain of fibronectin (Homo sapiens (Human)) (UniProt P02751); test: ELISA; H-296 coated at 50 ug/mL in 0.2 M phosphate buffer pH 6.8; HRP-labeled FNH3-8, ABTS
[7] = target: H-296, a polypeptide comprising a heparin binding domain and a CS-1 domain of fibronectin (Homo sapiens (Human)) (UniProt P02751); test: ELISA; H-296 coated at 50 ug/mL in 0.2 M acetate buffer pH 5.0; HRP-labeled FNH3-8, ABTS
H271-H296 [8] = test: ELISA; H271-H296 coated at 16 ug/mL; HRP-labeled FNH3-8, ABTS; blank subtracted
[9] = target: H-296, a polypeptide comprising a heparin binding domain and a CS-1 domain of fibronectin (Homo sapiens (Human)) (UniProt P02751); test: ELISA as in Example 34; H-296 coated at 25 ug/mL in pH 5.6 acetate buffer; HRP-labeled FNH3-8
H296-H296-H296-HT [10] = test: ELISA; H296-H296-H296-HT coated at 10 ug/mL; HRP-labeled FNH3-8, ABTS; blank subtracted
H296-H271 [11] = test: ELISA; H296-H271 coated at 5 ug/mL; HRP-labeled FNH3-8, ABTS; blank subtracted
[12] = target: H296-H296 (modified fibronectin fragment in which two H-296's are connected); test: ELISA as in Example 34; H296-H296 coated at 25 ug/mL in PBS; HRP-labeled FNH3-8
[13] = target: H-296, a polypeptide comprising a heparin binding domain and a CS-1 domain of fibronectin (Homo sapiens (Human)) (UniProt P02751); test: ELISA; H-296 coated at 50 ug/mL in 0.2 M acetate buffer pH 3.8; HRP-labeled FNH3-8, ABTS
[14] = target: H-296, a polypeptide comprising a heparin binding domain and a CS-1 domain of fibronectin (Homo sapiens (Human)) (UniProt P02751); test: ELISA as in Example 34; H-296 coated at 50 ug/mL in pH 5.6 acetate buffer; HRP-labeled FNH3-8
H296-H296-H296-HT [15] = test: ELISA; H296-H296-H296-HT coated at 3 ug/mL; HRP-labeled FNH3-8, ABTS; blank subtracted
[16] = target: H-296, a polypeptide comprising a heparin binding domain and a CS-1 domain of fibronectin (Homo sapiens (Human)) (UniProt P02751); test: ELISA; H-296 coated at 25 ug/mL in 0.2 M phosphate buffer pH 8.0; HRP-labeled FNH3-8, ABTS
H296-H271 [17] = test: ELISA; H296-H271 coated at 13 ug/mL; HRP-labeled FNH3-8, ABTS; blank subtracted
[18] = target: H-296, a polypeptide comprising a heparin binding domain and a CS-1 domain of fibronectin (Homo sapiens (Human)) (UniProt P02751); test: ELISA; H-296 coated at 25 ug/mL in 0.2 M acetate buffer pH 4.4; HRP-labeled FNH3-8, ABTS
[19] = target: H-296, a polypeptide comprising a heparin binding domain and a CS-1 domain of fibronectin (Homo sapiens (Human)) (UniProt P02751); test: ELISA as in Example 34; H-296 coated at 12.5 ug/mL in pH 5.6 acetate buffer; HRP-labeled FNH3-8
[20] = target: CH-296, a polypeptide comprising a cell binding domain, a heparin binding domain and a CS-1 domain of fibronectin (Homo sapiens (Human)) (UniProt P02751); test: ELISA; CH-296 coated at 25 ug/mL; HRP-labeled FNH3-8, ABTS; blank subtracted
[21] = target: H296-H296 (modified fibronectin fragment in which two H-296's are connected); test: ELISA as in Example 34; H296-H296 coated at 6.25 ug/mL in PBS; HRP-labeled FNH3-8
H271-H296 [22] = test: ELISA; H271-H296 coated at 20 ug/mL; HRP-labeled FNH3-8, ABTS; blank subtracted
H271-H296 [23] = test: ELISA; H271-H296 coated at 12 ug/mL; HRP-labeled FNH3-8, ABTS; blank subtracted
H296-H296-HT [24] = test: ELISA; H296-H296-HT coated at 3 ug/mL; HRP-labeled FNH3-8, ABTS; blank subtracted
[25] = target: H296-H296 (modified fibronectin fragment in which two H-296's are connected); test: ELISA as in Example 34; H296-H296 coated at 3.125 ug/mL in PBS; HRP-labeled FNH3-8
[26] = target: H-296, a polypeptide comprising a heparin binding domain and a CS-1 domain of fibronectin (Homo sapiens (Human)) (UniProt P02751); test: ELISA as in Example 34; H-296 coated at 100 ug/mL in pH 5.6 acetate buffer; HRP-labeled FNH3-8

Chain of H271-H296 (chain, as listed by the source limits assumed): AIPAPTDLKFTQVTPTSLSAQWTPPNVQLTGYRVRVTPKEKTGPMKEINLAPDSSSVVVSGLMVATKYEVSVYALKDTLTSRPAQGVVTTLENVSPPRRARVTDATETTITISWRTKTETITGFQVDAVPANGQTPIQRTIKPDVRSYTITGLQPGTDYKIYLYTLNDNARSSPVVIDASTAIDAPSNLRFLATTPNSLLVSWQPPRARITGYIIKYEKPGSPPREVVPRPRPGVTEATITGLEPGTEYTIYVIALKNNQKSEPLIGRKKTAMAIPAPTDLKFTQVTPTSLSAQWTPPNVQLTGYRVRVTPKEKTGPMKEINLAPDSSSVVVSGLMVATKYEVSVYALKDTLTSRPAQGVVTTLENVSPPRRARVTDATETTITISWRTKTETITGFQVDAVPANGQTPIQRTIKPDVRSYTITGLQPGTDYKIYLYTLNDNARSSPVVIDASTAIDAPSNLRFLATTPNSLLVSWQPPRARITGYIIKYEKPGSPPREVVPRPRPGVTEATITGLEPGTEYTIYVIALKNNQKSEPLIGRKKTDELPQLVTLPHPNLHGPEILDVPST
Chain of H296-H296-HT (chain, as listed by the source limits assumed): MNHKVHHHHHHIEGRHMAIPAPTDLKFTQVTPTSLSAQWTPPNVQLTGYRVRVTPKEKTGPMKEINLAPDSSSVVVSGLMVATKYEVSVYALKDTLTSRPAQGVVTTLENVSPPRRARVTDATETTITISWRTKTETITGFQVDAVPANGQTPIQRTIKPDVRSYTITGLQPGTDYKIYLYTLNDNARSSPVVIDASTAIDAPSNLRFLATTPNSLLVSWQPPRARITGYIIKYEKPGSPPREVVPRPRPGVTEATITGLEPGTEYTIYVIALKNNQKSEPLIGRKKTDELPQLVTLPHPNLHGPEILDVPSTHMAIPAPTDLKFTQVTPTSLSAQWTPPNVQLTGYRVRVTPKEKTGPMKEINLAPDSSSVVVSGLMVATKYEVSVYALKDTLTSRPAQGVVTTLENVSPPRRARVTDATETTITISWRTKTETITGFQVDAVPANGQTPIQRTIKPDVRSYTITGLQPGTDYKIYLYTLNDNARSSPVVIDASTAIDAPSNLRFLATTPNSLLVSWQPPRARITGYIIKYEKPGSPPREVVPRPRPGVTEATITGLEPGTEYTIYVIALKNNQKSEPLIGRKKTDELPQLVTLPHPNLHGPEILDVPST
Chain of H296-H296-H296-HT (chain, as listed by the source limits assumed): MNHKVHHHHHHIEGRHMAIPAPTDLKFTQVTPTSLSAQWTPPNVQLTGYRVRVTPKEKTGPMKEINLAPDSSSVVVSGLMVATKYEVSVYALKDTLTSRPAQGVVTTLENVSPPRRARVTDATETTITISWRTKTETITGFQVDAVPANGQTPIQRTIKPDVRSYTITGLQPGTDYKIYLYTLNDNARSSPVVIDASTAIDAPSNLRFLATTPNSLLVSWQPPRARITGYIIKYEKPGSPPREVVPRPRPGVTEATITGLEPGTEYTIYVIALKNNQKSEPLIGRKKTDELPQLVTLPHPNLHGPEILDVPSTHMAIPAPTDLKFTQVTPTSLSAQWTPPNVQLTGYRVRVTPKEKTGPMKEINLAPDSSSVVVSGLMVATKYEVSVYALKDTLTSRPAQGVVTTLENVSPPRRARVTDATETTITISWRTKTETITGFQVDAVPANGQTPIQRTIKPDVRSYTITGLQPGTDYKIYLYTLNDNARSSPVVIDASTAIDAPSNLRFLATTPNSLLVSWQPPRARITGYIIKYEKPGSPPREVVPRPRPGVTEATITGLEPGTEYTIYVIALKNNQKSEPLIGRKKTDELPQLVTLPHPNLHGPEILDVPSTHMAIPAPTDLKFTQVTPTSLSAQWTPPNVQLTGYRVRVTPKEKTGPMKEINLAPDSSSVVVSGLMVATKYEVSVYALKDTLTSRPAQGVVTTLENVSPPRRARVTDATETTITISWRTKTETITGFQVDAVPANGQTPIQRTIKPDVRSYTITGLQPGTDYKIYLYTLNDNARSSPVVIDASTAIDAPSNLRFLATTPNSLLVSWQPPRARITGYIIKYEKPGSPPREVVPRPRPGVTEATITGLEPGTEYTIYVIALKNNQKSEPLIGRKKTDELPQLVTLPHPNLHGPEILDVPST
Chain of H296-H271 (chain, as listed by the source limits assumed): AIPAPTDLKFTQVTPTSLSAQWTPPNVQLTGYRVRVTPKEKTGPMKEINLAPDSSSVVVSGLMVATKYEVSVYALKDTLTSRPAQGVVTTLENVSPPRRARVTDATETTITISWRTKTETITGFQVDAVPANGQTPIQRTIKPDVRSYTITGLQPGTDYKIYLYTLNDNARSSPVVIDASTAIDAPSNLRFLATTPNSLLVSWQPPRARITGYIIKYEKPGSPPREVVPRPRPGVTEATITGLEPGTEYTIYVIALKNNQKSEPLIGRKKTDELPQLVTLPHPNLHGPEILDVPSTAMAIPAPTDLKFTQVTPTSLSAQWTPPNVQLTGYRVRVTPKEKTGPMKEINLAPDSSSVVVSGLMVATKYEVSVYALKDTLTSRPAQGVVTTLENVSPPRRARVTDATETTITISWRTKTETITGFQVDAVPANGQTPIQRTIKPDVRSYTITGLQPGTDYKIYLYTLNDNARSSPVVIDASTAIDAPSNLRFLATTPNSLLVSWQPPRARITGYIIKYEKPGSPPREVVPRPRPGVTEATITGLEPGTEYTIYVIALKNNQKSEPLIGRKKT

405 nm (Found Value - Blank) (H296-H296-HT [1]): 0.976
405 nm (Found Value - Blank) (H271-H296 [2]): 0.6
absorbance at 405 nm [3]: 0.169
absorbance at 405 nm [4]: 0.244
absorbance at 405 nm [5]: 0.174
absorbance at 405 nm [6]: 0.167
absorbance at 405 nm [7]: 0.451
405 nm (Found Value - Blank) (H271-H296 [8]): 0.594
absorbance at 405 nm [9]: 0.224
405 nm (Found Value - Blank) (H296-H296-H296-HT [10]): 0.924
405 nm (Found Value - Blank) (H296-H271 [11]): 0.448
absorbance at 405 nm [12]: 2.02
absorbance at 405 nm [13]: 0.213
absorbance at 405 nm [14]: 0.304
405 nm (Found Value - Blank) (H296-H296-H296-HT [15]): 0.743
absorbance at 405 nm [16]: 0.104
405 nm (Found Value - Blank) (H296-H271 [17]): 0.609
absorbance at 405 nm [18]: 0.428
absorbance at 405 nm [19]: 0.277
405 nm (Found Value - Blank) [20]: 0.859
absorbance at 405 nm [21]: 1.29
405 nm (Found Value - Blank) (H271-H296 [22]): 0.603
405 nm (Found Value - Blank) (H271-H296 [23]): 0.639
405 nm (Found Value - Blank) (H296-H296-HT [24]): 0.742
absorbance at 405 nm [25]: 1.01
absorbance at 405 nm [26]: 0.499
Substance: FNH3-8 antibody (manufactured by TAKARA BIO INC.) labeled with HRP
